Measured values reported in the supplement of paper PMC5998384.

Assays:
[1] = system: HeLa Kyoto; assay: solubility in G1/S (NP-40 vs SDS abundance) (log2 ratio); higher = more soluble; conditions: cell cycle stage: G1/S
[2] = system: HeLa Kyoto; assay: thermal stability score vs G1/S (z-score of summed log2 fold changes over temperatures); higher = more thermally stable than in G1/S
[3] = system: HeLa Kyoto; assay: melting temperature (median over replicates), in situ; higher = more thermally stable
[4] = system: HeLa Kyoto; assay: solubility change mitosis vs G1/S (difference of NP-40 vs SDS log2 ratios) (log2 ratio difference); higher = more soluble in mitosis
[5] = cell cycle stage: early G1 (4.5 h after nocodazole release)
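Wherever melting temperature (median over replicates), in situ is given: HeLa Kyoto cells synchronized by double thymidine or nocodazole block, proteins quantified by TMT10plex mass spectrometry, three independent biological replicates.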
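Wherever solubility change mitosis vs G1/S (difference of NP-40 vs SDS log2 ratios) is given: synchronized HeLa Kyoto cells (double thymidine block for G1/S, nocodazole release for mitosis), protein amounts in NP-40 versus SDS lysates quantified by mass spectrometry, three biological replicates.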
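Wherever solubility in G1/S (NP-40 vs SDS abundance) is given: HeLa Kyoto cells arrested at G1/S by double thymidine block, proteins quantified by TMT10plex mass spectrometry in mild NP-40 versus SDS extracts, three biological replicates.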
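Wherever thermal stability score vs G1/S (z-score of summed log2 fold changes over temperatures) is given: synchronized HeLa Kyoto cells, proteins quantified by TMT10plex mass spectrometry, three biological replicates, mitosis taken 0.5 h after nocodazole release, G1/S directly after double thymidine block.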

Substance	solubility in G1/S (log2) [1]	thermal stability score [2, 5]	thermal stability score ([2]; cell cycle stage: mitosis)	melting temperature ([3]; cell cycle stage: G1/S)	melting temperature ([3]; cell cycle stage: mitosis)	solubility change mitosis (log2) [4]
MKPAAREARLPPRSPGLRWALPLLLLLLRLGQILCAGGTPSPIPDPSVATVATGENGITQISSTAESFHKQNGTGTPQVETNTSEDGESSGANDSLRTPEQGSNGTDGASQKTPSSTGPSPVFDIKAVSISPTNVILTWKSNDTAASEYKYVVKHKMENEKTITVVHQPWCNITGLRPATSYVFSITPGIGNETWGDPRVIKVITEPIPVSDLRVALTGVRKAALSWSNGNGTASCRVLLESIGSHEELTQDSRLQVNISGLKPGVQYNINPYLLQSNKTKGDPLGTEGGLDASNTERSRAGSPTAPVHDESLVGPVDPSSGQQSRDTEVLLVGLEPGTRYNATVYSQAANGTEGQPQAIEFRTNAIQVFDVTAVNISATSLTLIWKVSDNESSSNYTYKIHVAGETDSSNLNVSEPRAVIPGLRSSTFYNITVCPVLGDIEGTPGFLQVHTPPVPVSDFRVTVVSTTEIGLAWSSHDAESFQMHITQEGAGNSRVEITTNQSIIIGGLFPGTKYCFEIVPKGPNGTEGASRTVCNRTVPSAVFDIHVVYVTTTEMWLDWKSPDGASEYVYHLVIESKHGSNHTSTYDKAITLQGLIPGTLYNITISPEVDHVWGDPNSTAQYTRPSNVSNIDVSTNTTAATLSWQNFDDASPTYSYCLLIEKAGNSSNATQVVTDIGITDATVTELIPGSSYTVEIFAQVGDGIKSLEPGRKSFCTDPASMASFDCEVVPKEPALVLKWTCPPGANAGFELEVSSGAWNNATHLESCSSENGTEYRTEVTYLNFSTSYNISITTVSCGKMAAPTRNTCTTGITDPPPPDGSPNITSVSHNSVKVKFSGFEASHGPIKAYAVILTTGEAGHPSADVLKYTYEDFKKGASDTYVTYLIRTEEKGRSQSLSEVLKYEIDVGNESTTLGYYNGKLEPLGSYRACVAGFTNITFHPQNKGLIDGAESYVSFSRYSDAVSLPQDPGVICGAVFGCIFGALVIVTVGGFIFWRKKRKDAKNNEVSFSQIKPKKSKLIRVENFEAYFKKQQADSNCGFAEEYEDLKLVGISQPKYAAELAENRGKNRYNNVLPYDISRVKLSVQTHSTDDYINANYMPGYHSKKDFIATQGPLPNTLKDFWRMVWEKNVYAIIMLTKCVEQGRTKCEEYWPSKQAQDYGDITVAMTSEIVLPEWTIRDFTVKNIQTSESHPLRQFHFTSWPDHGVPDTTDLLINFRYLVRDYMKQSPPESPILVHCSAGVGRTGTFIAIDRLIYQIENENTVDVYGIVYDLRMHRPLMVQTEDQYVFLNQCVLDIVRSQKDSKVDLIYQNTTAMTIYENLAPVTTFGKTNGYIA [PTPRJ]	-0.204	3.12	-2.28	50.6 °C	50 °C	0.155
MAEERPGAWFGFGFCGFGQELGSGRGRQVHSPSPLRAGVDICRVSASWSYTAFVTRGGRLELSGSASGAAGRCKDAWASEGLLAVLRAGPGPEALLQVWAAESALRGEPLWAQNVVPEAEGEDDPAGEAQAGRLPLLPCARAYVSPRAPFYRPLAPELRARQLELGAEHALLLDAAGQVFSWGGGRHGQLGHGTLEAELEPRLLEALQGLVMAEVAAGGWHSVCVSETGDIYIWGWNESGQLALPTRNLAEDGETVAREATELNEDGSQVKRTGGAEDGAPAPFIAVQPFPALLDLPMGSDAVKASCGSRHTAVVTRTGELYTWGWGKYGQLGHEDTTSLDRPRRVEYFVDKQLQVKAVTCGPWNTYVYAVEKGKS [RCCD1]	0.0194	-0.546	-1.48	51.8 °C	54 °C	-0.0463
MEVAVEKAVAAAAAASAAASGGPSAAPSGENEAESRQGPDSERGGEAARLNLLDTCAVCHQNIQSRAPKLLPCLHSFCQRCLPAPQRYLMLPAPMLGSAETPPPVPAPGSPVSGSSPFATQVGVIRCPVCSQECAERHIIDNFFVKDTTEVPSSTVEKSNQVCTSCEDNAEANGFCVECVEWLCKTCIRAHQRVKFTKDHTVRQKEEVSPEAVGVTSQRPVFCPFHKKEQLKLYCETCDKLTCRDCQLLEHKEHRYQFIEEAFQNQKVIIDTLITKLMEKTKYIKFTGNQIQNRIIEVNQNQKQVEQDIKVAIFTLMVEINKKGKALLHQLESLAKDHRMKLMQQQQEVAGLSKQLEHVMHFSKWAVSSGSSTALLYSKRLITYRLRHLLRARCDASPVTNNTIQFHCDPSFWAQNIINLGSLVIEDKESQPQMPKQNPVVEQNSQPPSGLSSNQLSKFPTQISLAQLRLQHMQQQVMAQRQQVQRRPAPVGLPNPRMQGPIQQPSISHQQPPPRLINFQNHSPKPNGPVLPPHPQQLRYPPNQNIPRQAIKPNPLQMAFLAQQAIKQWQISSGQGTPSTTNSTSSTPSSPTITSAAGYDGKAFGSPMIDLSSPVGGSYNLPSLPDIDCSSTIMLDNIVRKDTNIDHGQPRPPSNRTVQSPNSSVPSPGLAGPVTMTSVHPPIRSPSASSVGSRGSSGSSSKPAGADSTHKVPVVMLEPIRIKQENSGPPENYDFPVVIVKQESDEESRPQNANYPRSILTSLLLNSSQSSTSEETVLRSDAPDSTGDQPGLHQDNSSNGKSEWLDPSQKSPLHVGETRKEDDPNEDWCAVCQNGGELLCCEKCPKVFHLSCHVPTLTNFPSGEWICTFCRDLSKPEVEYDCDAPSHNSEKKKTEGLVKLTPIDKRKCERLLLFLYCHEMSLAFQDPVPLTVPDYYKIIKNPMDLSTIKKRLQEDYSMYSKPEDFVADFRLIFQNCAEFNEPDSEVANAGIKLENYFEELLKNLYPEKRFPKPEFRNESEDNKFSDDSDDDFVQPRKKRLKSIEERQLLK [TRIM24]	-0.0643	2.07	4.99	48.8 °C	50.2 °C	-0.117
MAVFADLDLRAGSDLKALRGLVETAAHLGYSVVAINHIVDFKEKKQEIEKPVAVSELFTTLPIVQGKSRPIKILTRLTIIVSDPSHCNVLRATSSRARLYDVVAVFPKTEKLFHIACTHLDVDLVCITVTEKLPFYFKRPPINVAIDRGLAFELVYSPAIKDSTMRRYTISSALNLMQICKGKNVIISSAAERPLEIRGPYDVANLGLLFGLSESDAKAAVSTNCRAALLHGETRKTAFGIISTVKKPRPSEGDEDCLPASKKAKCEG [RPP30]	-0.0469	-0.0475	-1.92	55.3 °C	56.1 °C	-0.0188
MADTTPNGPQGAGAVQFMMTNKLDTAMWLSRLFTVYCSALFVLPLLGLHEAASFYQRALLANALTSALRLHQRLPHFQLSRAFLAQALLEDSCHYLLYSLIFVNSYPVTMSIFPVLLFSLLHAATYTKKVLDARGSNSLPLLRSVLDKLSANQQNILKFIACNEIFLMPATVFMLFSGQGSLLQPFIYYRFLTLRYSSRRNPYCRTLFNELRIVVEHIIMKPACPLFVRRLCLQSIAFISRLAPTVP [TMEM33]	0.0522	2.25	2.45	55 °C	53.5 °C	-0.177
MKPGATGESDLAEVLPQHKFDSKSLEAYLNQHLSGFGAEREATLTIAQYRAGKSNPTFYLQKGFQTYVLRKKPPGSLLPKAHQIDREFKVQKALFSIGFPVPKPILYCSDTSVIGTEFYVMEHVQGRIFRDLTIPGLSPAERSAIYVATVETLAQLHSLNIQSLQLEGYGIGAGYCKRQVSTWTKQYQAAAHQDIPAMQQLSEWLMKNLPDNDNEENLIHGDFRLDNIVFHPKECRVIAVLDWELSTIGHPLSDLAHFSLFYFWPRTVPMINQGSYSENSGIPSMEELISIYCRCRGINSILPNWNFFLALSYFKMAGIAQGVYSRYLLGNNSSEDSFLFANIVQPLAETGLQLSKRTFSTVLPQIDTTGQLFVQTRKGQEVLIKVKHFMKQHILPAEKEVTEFYVQNENSVDKWGKPLVIDKLKEMAKVEGLWNLFLPAVSGLSHVDYALIAEETGKCFFAPDVFNCQAPDTGNMEVLHLYGSEEQKKQWLEPLLQGNITSCFCMTEPDVASSDATNIECSIQRDEDSYVINGKKWWSSGAGNPKCKIAIVLGRTQNTSLSRHKQHSMILVPMNTPGVKIIRPLSVFGYTDNFHGGHFEIHFNQVRVPATNLILGEGRGFEISQGRLGPGRIHHCMRTVGLAERALQIMCERATQRIAFKKKLYAHEVVAHWIAESRIAIEKIRLLTLKAAHSMDTLGSAGAKKEIAMIKVAAPRAVSKIVDWAIQVCGGAGVSQDYPLANMYAITRVLRLADGPDEVHLSAIATMELRDQAKRLTAKI [ACAD11]	-0.0959	0.241	-0.505	53.9 °C	52.9 °C	-0.0749
SMCHD1	-0.216	3.02	5.78	47.4 °C	48.7 °C	-0.104
MRWILFIGALIGSSICGQEKFFGDQVLRINVRNGDEISKLSQLVNSNNLKLNFWKSPSSFNRPVDVLVPSVSLQAFKSFLRSQGLEYAVTIEDLQALLDNEDDEMQHNEGQERSSNNFNYGAYHSLEAIYHEMDNIAADFPDLARRVKIGHSFENRPMYVLKFSTGKGVRRPAVWLNAGIHSREWISQATAIWTARKIVSDYQRDPAITSILEKMDIFLLPVANPDGYVYTQTQNRLWRKTRSRNPGSSCIGADPNRNWNASFAGKGASDNPCSEVYHGPHANSEVEVKSVVDFIQKHGNFKGFIDLHSYSQLLMYPYGYSVKKAPDAEELDKVARLAAKALASVSGTEYQVGPTCTTVYPASGSSIDWAYDNGIKFAFTFELRDTGTYGFLLPANQIIPTAEETWLGLKTIMEHVRDNLY [CPA4]	0.184	1.94	1.93	57.4 °C	58.7 °C	0.0829
NBAS	-0.197	0.362	1.51	49.8 °C	50.1 °C	-0.169
HERC2	-0.443	0.138	0.405	51.3 °C	50 °C	0.00915
MKAIKKSLTEEEYLYLDFSHQTEGCIFPLHTSVTLFLLSYCDCKIFKICLVVTKEVSRDSSLLRDDLIQDVEIQIISRQELPPIVQNCCLPAVVERSDNFCRAGLAVVLRHIIQKSYEADPLKKELLELLGFKKTCLKACAEVSQWTRLCELTIPLAIENFLRESSDQPPTIPVEILQLEKKLSEPVRVHNDDKLRRQKLKQQKADGVGPPLTKGKAKSKVHTQETSEGLDSSSKSLELKVAFSKLTVQEEPATTNREPSHIRKAKASDLPPLEHVFAEGLYFTLADIVLLPCIHHFLVIISRKFSEKLVEFPLLASWYQRIQEVPGVKTAASKCGIQFLHLPKLLTTSTEQHPNLCEVPGVEEQSDPLFIGGPRPTMAKLMEKGIEVMFSPHPCPTWTLDWNVLPAAVSPKEGKMSSDRALRKQQQLNNLVYVVTNQAKPGDRIVDFCSGGGHVGIVLAHMLPSCQVTLIENKELSLIRAKKRSDELGLSNIWFIQANMEYFTGMFNIGVALHACGVATDMVIEHCIKTRASFVTCPCCYGFIQNTSKFNFPKSEQFKKTLSYKEHMILCRFADQTAVQLPPQRRLIGKQCMCLVDLDRARAAEECGYSVQVISMEPESCSPKNNMIVGVPI [GSTCD]	-0.0129	-0.282	-1.67	51.7 °C	53.4 °C	-0.116
MDGGDDGNLIIKKRFVSEAELDERRKRRQEEWEKVRKPEDPEECPEEVYDPRSLYERLQEQKDRKQQEYEEQFKFKNMVRGLDEDETNFLDEVSRQQELIEKQRREEELKELKEYRNNLKKVGISQENKKEVEKKLTVKPIETKNKFSQAKLLAGAVKHKSSESGNSVKRLKPDPEPDDKNQEPSSCKSLGNTSLSGPSIHCPSAAVCIGILPGLGAYSGSSDSESSSDSEGTINATGKIVSSIFRTNTFLEAP [FAM192A]	0.194	-1.68	-2.27	57.6 °C	–	-0.000768
